Measured values published in patent US20190367592A1 (AC IMMUNE, published 2019).

Molecular target: T1, recombinant human Tau monomer, 2N4R isoform (amino acids 2-441) (human, UniProt P10636-8 2-441)
T1 construct: range 2-441; N-terminal His-tag removed with TEV protease; also called monomeric Tau
Experiment: SPR screen, hIgG captured, Tau monomer analyte
Text: Antibody 125B11-H3 was humanized onto VH3 and Vκ1 consensus frameworks. The heavy chain graft included murine residues at position 78 (Kabat numbering system). The Vκ1 graft included murine residues in framework positions 43 and 87. The light chain of 113F5-F7 was also humanized onto the Vκ1 framework, with additional murine residues at framework positions 43 and 87. Humanized variant heavy chains (125B11) and light chains (125B11 and 113F5-F7) were co-transfected in multiple combinations and purified in 96-well format as described above. Humanized variants were then screened for affinity for human Tau monomer using the Biacore human IgG capture kit, a Series S CM5 chip and a Biacore T200 instrument. Antibodies were diluted to 2 μg/ml and captured for 15 seconds at 10 μl/min. Association and dissociation of 0, 100 and 500 nM human Tau monomer in HBSP was monitored for 180s and 300s respectively at a flow rate of 40 μl/min. A 1:1 binding model was applied to the results (Table 9).
Variants hu125B11.v17 (HC3+LC1), hu125B11.v26 (HC4+LC2) and hu125B 11.v28 (HC4+LC4) were selected for high-resolution kinetic analysis based on the affinity screen (Table 10). Antibody 94B2-C1 was humanized onto VH1 and Vx2 frameworks. The heavy chain graft also included murine residues at position 28, 29, 67, 69, 71, and 73 (Kabat numbering system). The Vκ2 graft also included murine residues in framework positions 2, 36, and 46. […] Variant hu94B2.v105 (heavy chain variant 94B2.HCl, light chain variant 94B2.LC13) was selected for detailed SPR characterization (Table 11).

T1 sequence (P10636 other isoform, or with tags, fused parts or gaps limits assumed): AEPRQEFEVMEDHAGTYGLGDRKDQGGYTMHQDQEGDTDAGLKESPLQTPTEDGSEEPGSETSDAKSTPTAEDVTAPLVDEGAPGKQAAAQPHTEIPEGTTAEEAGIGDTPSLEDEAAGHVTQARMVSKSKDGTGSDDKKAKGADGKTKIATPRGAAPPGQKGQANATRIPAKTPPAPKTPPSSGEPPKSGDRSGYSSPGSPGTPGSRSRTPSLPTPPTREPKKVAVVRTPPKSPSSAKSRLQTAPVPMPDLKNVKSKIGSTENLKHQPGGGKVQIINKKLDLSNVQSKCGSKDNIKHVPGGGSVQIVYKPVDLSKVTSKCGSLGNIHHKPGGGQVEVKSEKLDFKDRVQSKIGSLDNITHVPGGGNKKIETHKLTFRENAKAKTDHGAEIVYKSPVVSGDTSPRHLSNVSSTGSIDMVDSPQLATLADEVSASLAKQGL

Binder | Kd
hu94B2 HC3 + LC15 (antibody, V domains shown) VH: EVQLVQSGAEVKKPGASVKVSCKASGYSLTGYTMNWVRQAPGQGLEWIGLISPYNGVTSYNQKFKGRATITVDKSTSTAYLELSSLRSEDTAVYYCARQGAYWGQGTLVTVSS VL: DIVMTQTPLSLPVTPGQPASISCKSSQSLLDSDGKTYLNWYLQKPGQSPQRLIYLVSKLDSGVPDRFSGSGSGTDFTLKISRVEAEDVGVYYCWQGTHFPWTFGQGTKVEIK | 64.1 nM
hu94B2 HC6 + LC9 (antibody, V domains shown) VH: EVQLVQSGAEVKKPGASVKVSCKASGYSLTGYTMNWVRQAPGQGLEWIGLISPYNGVTSYNQKFKGRVTITVDKSTSTAYLELSSLRSEDTAVYYCARQGAYWGQGTLVTVSS VL: DVVMTQTPLSLPVTPGQPASISCKSSQSLLDSDGKTYLNWLLQKPGQSPQRLIYLVSKLDSGVPDRFSGSGSGTDFTLKISRVEAEDVGVYYCWQGTHFPWTFGQGTKVEIK | 0.9 nM
hu94B2 HC5 + LC13 (antibody, V domains shown) VH: EVQLVQSGAEVKKPGASVKVSCKASGYSLTGYTMNWVRQAPGQGLEWIGLISPYNGVTSYNQKFKGRATLTVDTSTSTAYLELSSLRSEDTAVYYCARQGAYWGQGTLVTVSS VL: DIVMTQTPLSLPVTPGQPASISCKSSQSLLDSDGKTYLNWLLQKPGQSPQRLIYLVSKLDSGVPDRFSGSGSGTDFTLKISRVEAEDVGVYYCWQGTHFPWTFGQGTKVEIK | 4 nM
hu94B2 HC8 + LC15 (antibody, V domains shown) VH: EVQLVQSGAEVKKPGASVKVSCKASGYSLTGYTMNWVRQAPGQGLEWIGLISPYNGVTSYNQKFKGRVTITVDTSTSTAYLELSSLRSEDTAVYYCARQGAYWGQGTLVTVSS VL: DIVMTQTPLSLPVTPGQPASISCKSSQSLLDSDGKTYLNWYLQKPGQSPQRLIYLVSKLDSGVPDRFSGSGSGTDFTLKISRVEAEDVGVYYCWQGTHFPWTFGQGTKVEIK | 51.5 nM
hu94B2 HC5 + LC15 (antibody, V domains shown) VH: EVQLVQSGAEVKKPGASVKVSCKASGYSLTGYTMNWVRQAPGQGLEWIGLISPYNGVTSYNQKFKGRATLTVDTSTSTAYLELSSLRSEDTAVYYCARQGAYWGQGTLVTVSS VL: DIVMTQTPLSLPVTPGQPASISCKSSQSLLDSDGKTYLNWYLQKPGQSPQRLIYLVSKLDSGVPDRFSGSGSGTDFTLKISRVEAEDVGVYYCWQGTHFPWTFGQGTKVEIK | 72.6 nM
hu94B2 HC5 + LC11 (antibody, V domains shown) VH: EVQLVQSGAEVKKPGASVKVSCKASGYSLTGYTMNWVRQAPGQGLEWIGLISPYNGVTSYNQKFKGRATLTVDTSTSTAYLELSSLRSEDTAVYYCARQGAYWGQGTLVTVSS VL: DVVMTQTPLSLPVTPGQPASISCKSSQSLLDSDGKTYLNWYLQKPGQSPQRLIYLVSKLDSGVPDRFSGSGSGTDFTLKISRVEAEDVGVYYCWQGTHFPWTFGQGTKVEIK | 62.6 nM
hu94B2 HC8 + LC13 (antibody, V domains shown) VH: EVQLVQSGAEVKKPGASVKVSCKASGYSLTGYTMNWVRQAPGQGLEWIGLISPYNGVTSYNQKFKGRVTITVDTSTSTAYLELSSLRSEDTAVYYCARQGAYWGQGTLVTVSS VL: DIVMTQTPLSLPVTPGQPASISCKSSQSLLDSDGKTYLNWLLQKPGQSPQRLIYLVSKLDSGVPDRFSGSGSGTDFTLKISRVEAEDVGVYYCWQGTHFPWTFGQGTKVEIK | 2.4 nM
hu94B2 HC6 + LC13 (antibody, V domains shown) VH: EVQLVQSGAEVKKPGASVKVSCKASGYSLTGYTMNWVRQAPGQGLEWIGLISPYNGVTSYNQKFKGRVTITVDKSTSTAYLELSSLRSEDTAVYYCARQGAYWGQGTLVTVSS VL: DIVMTQTPLSLPVTPGQPASISCKSSQSLLDSDGKTYLNWLLQKPGQSPQRLIYLVSKLDSGVPDRFSGSGSGTDFTLKISRVEAEDVGVYYCWQGTHFPWTFGQGTKVEIK | 3 nM
hu94B2 HC6 + LC15 (antibody, V domains shown) VH: EVQLVQSGAEVKKPGASVKVSCKASGYSLTGYTMNWVRQAPGQGLEWIGLISPYNGVTSYNQKFKGRVTITVDKSTSTAYLELSSLRSEDTAVYYCARQGAYWGQGTLVTVSS VL: DIVMTQTPLSLPVTPGQPASISCKSSQSLLDSDGKTYLNWYLQKPGQSPQRLIYLVSKLDSGVPDRFSGSGSGTDFTLKISRVEAEDVGVYYCWQGTHFPWTFGQGTKVEIK | 74.1 nM
hu94B2 HC4 + LC9 (antibody, V domains shown) VH: EVQLVQSGAEVKKPGASVKVSCKASGYSLTGYTMNWVRQAPGQGLEWIGLISPYNGVTSYNQKFKGRATLTRDKSTSTAYLELSSLRSEDTAVYYCARQGAYWGQGTLVTVSS VL: DVVMTQTPLSLPVTPGQPASISCKSSQSLLDSDGKTYLNWLLQKPGQSPQRLIYLVSKLDSGVPDRFSGSGSGTDFTLKISRVEAEDVGVYYCWQGTHFPWTFGQGTKVEIK | 61.9 nM
hu94B2 HC6 + LC11 (antibody, V domains shown) VH: EVQLVQSGAEVKKPGASVKVSCKASGYSLTGYTMNWVRQAPGQGLEWIGLISPYNGVTSYNQKFKGRVTITVDKSTSTAYLELSSLRSEDTAVYYCARQGAYWGQGTLVTVSS VL: DVVMTQTPLSLPVTPGQPASISCKSSQSLLDSDGKTYLNWYLQKPGQSPQRLIYLVSKLDSGVPDRFSGSGSGTDFTLKISRVEAEDVGVYYCWQGTHFPWTFGQGTKVEIK | 70.1 nM
hu94B2 HC4 + LC13 (antibody, V domains shown) VH: EVQLVQSGAEVKKPGASVKVSCKASGYSLTGYTMNWVRQAPGQGLEWIGLISPYNGVTSYNQKFKGRATLTRDKSTSTAYLELSSLRSEDTAVYYCARQGAYWGQGTLVTVSS VL: DIVMTQTPLSLPVTPGQPASISCKSSQSLLDSDGKTYLNWLLQKPGQSPQRLIYLVSKLDSGVPDRFSGSGSGTDFTLKISRVEAEDVGVYYCWQGTHFPWTFGQGTKVEIK | 64.1 nM
hu94B2 HC8 + LC11 (antibody, V domains shown) VH: EVQLVQSGAEVKKPGASVKVSCKASGYSLTGYTMNWVRQAPGQGLEWIGLISPYNGVTSYNQKFKGRVTITVDTSTSTAYLELSSLRSEDTAVYYCARQGAYWGQGTLVTVSS VL: DVVMTQTPLSLPVTPGQPASISCKSSQSLLDSDGKTYLNWYLQKPGQSPQRLIYLVSKLDSGVPDRFSGSGSGTDFTLKISRVEAEDVGVYYCWQGTHFPWTFGQGTKVEIK | 44.3 nM
hu94B2 HC5 + LC9 (antibody, V domains shown) VH: EVQLVQSGAEVKKPGASVKVSCKASGYSLTGYTMNWVRQAPGQGLEWIGLISPYNGVTSYNQKFKGRATLTVDTSTSTAYLELSSLRSEDTAVYYCARQGAYWGQGTLVTVSS VL: DVVMTQTPLSLPVTPGQPASISCKSSQSLLDSDGKTYLNWLLQKPGQSPQRLIYLVSKLDSGVPDRFSGSGSGTDFTLKISRVEAEDVGVYYCWQGTHFPWTFGQGTKVEIK | 2.7 nM
hu94B2 HC8 + LC9 (antibody, V domains shown) VH: EVQLVQSGAEVKKPGASVKVSCKASGYSLTGYTMNWVRQAPGQGLEWIGLISPYNGVTSYNQKFKGRVTITVDTSTSTAYLELSSLRSEDTAVYYCARQGAYWGQGTLVTVSS VL: DVVMTQTPLSLPVTPGQPASISCKSSQSLLDSDGKTYLNWLLQKPGQSPQRLIYLVSKLDSGVPDRFSGSGSGTDFTLKISRVEAEDVGVYYCWQGTHFPWTFGQGTKVEIK | 1 nM
hu94B2 HC7 + LC9 (antibody, V domains shown) VH: EVQLVQSGAEVKKPGASVKVSCKASGYSLTGYTMNWVRQAPGQGLEWIGLISPYNGVTSYNQKFKGRVTITRDKSTSTAYLELSSLRSEDTAVYYCARQGAYWGQGTLVTVSS VL: DVVMTQTPLSLPVTPGQPASISCKSSQSLLDSDGKTYLNWLLQKPGQSPQRLIYLVSKLDSGVPDRFSGSGSGTDFTLKISRVEAEDVGVYYCWQGTHFPWTFGQGTKVEIK | 52.9 nM
hu94B2 HC7 + LC13 (antibody, V domains shown) VH: EVQLVQSGAEVKKPGASVKVSCKASGYSLTGYTMNWVRQAPGQGLEWIGLISPYNGVTSYNQKFKGRVTITRDKSTSTAYLELSSLRSEDTAVYYCARQGAYWGQGTLVTVSS VL: DIVMTQTPLSLPVTPGQPASISCKSSQSLLDSDGKTYLNWLLQKPGQSPQRLIYLVSKLDSGVPDRFSGSGSGTDFTLKISRVEAEDVGVYYCWQGTHFPWTFGQGTKVEIK | 57.8 nM
